In US20220184120A1 (MINERVA BIOTECHNOLOGIES, published 2022):
Residue numbers refer to the chain shown, from its start.

B1: 28F9 mouse monoclonal antibody (antibody, V domains shown)
VH: QVQLQQPGAELVQPGASVKLSCKASGYTFTGYFLYWVKQRPGHGLEWIGGIHPSNGDTDFNEKFKNKATLTVDISSSTAYMQLSSLTSEDSAVYYCTLLIGVYWGQGTTLTVSS
VL: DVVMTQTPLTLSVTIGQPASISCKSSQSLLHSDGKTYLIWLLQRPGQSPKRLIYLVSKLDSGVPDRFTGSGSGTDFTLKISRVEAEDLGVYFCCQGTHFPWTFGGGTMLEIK
notes: raised against PSMGFR; also called MN-28F9; anti-PSMGFR antibody 28F9
B2: 18G12 mouse monoclonal antibody (antibody, V domains shown)
VH: B1 VH with P7S, Q13K, H43Q, H52N, S54D, D57G, T58I, K65R, I74K, V102N
VL: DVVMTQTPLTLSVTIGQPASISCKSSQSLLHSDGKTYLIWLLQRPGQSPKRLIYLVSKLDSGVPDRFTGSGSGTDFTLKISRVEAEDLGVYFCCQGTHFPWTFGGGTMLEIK
notes: raised against PSMGFR; also called MN-18G12; anti-PSMGFR antibody 18G12
B3: 25E6 mouse monoclonal antibody (antibody, V domains shown)
VH: EVQLVESGGDLVKPGGSLKLSCAASGFTFSSYGMSWVRQTPDKRLEWVATISNGGRHTFYPDSVKGRFTISRDNAKNTLYLQMSSLKSEDTAMYLCVRQTGTEGWFAYWGQGTLVTVSA
VL: not shown
notes: raised against PSMGFR; also called MN-25E6; anti-PSMGFR antibody 25E6
B4: 3C2B1 mouse monoclonal antibody (antibody, V domains shown)
VH: EVMLVESGGGLVKPGGSLKLSCAASGITFSTYTMSWVRQTPEKRLEWVATISTGGDKTYYSDSVKGRFTISRDNAKNNLYLQMSSLRSEDTALYYCARGTTAMYYYAMDYWGQGTSVTVSS
VL: DIVLTQSPASLAVSLGQRATISCRASKSISTSDYNYIHWYQQKPGQPPKLLIYLASNLESGVPARFSGSGSGTDFTLNIHPVEEEDAATYYCQHSRELPLTFGAGTKLELK
notes: raised against PSMGFR; also called MN-3C2B1; anti-PSMGFR antibody 3C2B1
B5: 5C6F3 mouse monoclonal antibody (antibody, V domains shown)
VH: EVMLVESGGGLVKPGGSLKLSCAASGFTFSTYAMSWVRQTPEKRLEWVAAISNGGGYTYYPDSLKGRFTISRDNAKNTLYLQMSSLRSEDTATYYCARRYYDHYFDYWGQGTALTVSS
VL: DVLMTQTPLSLPVSLGDQASISCRSSQTIVHSNGNTYLEWYLQKPGQSPKLLIYKVSNRFSGVPDRFSGSGSGTDFTLKISRVEAEDLGVYYCFQDSHVPLTFGAGTKLELK
notes: raised against PSMGFR; also called MN-5C6F3; anti-PSMGFR antibody 5C6F3
B6: 29H1 mouse monoclonal antibody (antibody, V domains shown)
VH: EVKLEESGGGLVQPGGSMKLSCAASGFTFSDAWMDWVRQSPEKGLEWVAEIRSKATNHATYYAESVKGRFTISRDDSKSSVYLQMNSLRAEDTGIYYCTPLLYGFAYWGQGTLVTVSA
VL: DVVMTQTPLSLPVSLGDQASISCRSGQSLVHSNGHTYLHWYLQKPGQSPRLLIYKVSNRFSGVPDRFSGSGSRADFTLKISRVEAEDLGVYFCSQTTHVPWTFGGGTKLEIK
notes: raised against N+20/C-27; also called N+20/C-27 antibody 29H1
B7: 32C1 mouse monoclonal antibody (antibody, V domains shown)
VH: EVKLEESGGGLVQSGGSMKLSCVASGFTFSNYWMNWVRQSPEKGLEWVAEIRLKSNNYAIHYAESVKGRFTISRDDSKSSVYLQMNNLRAEDTGIYYCTRVPGLDAYWGQGTLVTVSA
VL: B6 VL with G26S, H35N, R50K, R73G, A74T, R82S, T96I, W101Y, K108N
notes: raised against N+20/C-27; also called N+20/C-27 antibody 32C1
B8: 31A1 mouse monoclonal antibody (antibody, V domains shown)
VH: QVQLQQSGAELAKPGASVKMSCKASGYTFTSYWMHWVKQRPGQGLEWIGYINPSTGYTEYNQKFKDKATLTADKSSSTAYMQLSSLTSEDSAVYYCARAYIDYWGQGTTLTVSS
VL: B5 VL with I21F, T28S, S81N, D96V, V99F, L101W, A105G, L111I
notes: raised against N+20/C-27; also called N+20/C-27 antibody 31A1
B9: PSMGFR peptide (Primary Sequence of the MUC1 Growth Factor Receptor) (peptide)
peptide: GTINVHDVETQFNQYKTEAASRYNLTISDVSVSDVPFPFSAQSGA
notes: synthetic peptide immobilised on ELISA plates; also called MUC1* peptide; MUC1* extra cellular domain peptide
B10: B9 mouse monoclonal antibody (antibody, V domains shown)
VH: EVQVVESGGDLVKPGGSLKLSCAASGFTFSRYGMSWVRQTPDKRLEWVATISSGGTYIYYPDSVKGRFTISRDNAKNTLYLQMSSLKSEDTAMYYCARDNYGSSYDYAMDYWGQGTSVTVSS
VL: QIVLTQSPAIMSASPGEEVTLTCSASSSVSYMHWFQQRPGTSPKLWIYTTSNLASGVPARFSGSGSGTSYSLTISRMEAEDAATYYCQQRSSYPFTFGSGTKLEIK
notes: raised against PSMGFR; built from framework and CDR entries
B11: B12 mouse monoclonal antibody (antibody, V domains shown)
VH: QAQLKESGPGLVAPSQSLSITCTVSGFSLTSYGVHWVRQPPGKGLEWLGVIWPGGSTNYNSTLMSRMRIIKDNSKSQVFLKMNSLQIDDTAMYYCARDRTPRVGAWFAYWGQGTLVTVSA
VL: IIVLTQSPASLAVSLGQRATISCRASESVATYGNNFMQWYQQKPGQPPKLLIYLASTLDSGVPARFSGSGSRTDFTLTIDPVEADDAATYYCQQNNEDPPTFGGGTKLEIK
notes: as for B10
B12: B2 mouse monoclonal antibody (antibody, V domains shown)
VH: EVVLVESGGGLVEPGGSLKLSCVASGFAFSTFAMSWIRQTPEKRLEWVAAISNGGGYTYYPDTLKGRFSISRDNAKNTLYLQMSSLRSEDTAVYYCARRYYDLYFDLWGRGTSLIVSS
VL: B5 VL with V2I, T28N, K108R
notes: as for B10
B13: 8C7F3 mouse monoclonal antibody (antibody, V domains shown)
VH: B5 VH
VL: B11 VL
notes: as for B10
B14: B7 mouse monoclonal antibody (antibody, V domains shown)
VH: B10 VH
VL: B5 VL
notes: as for B10
B15: H11 mouse monoclonal antibody (antibody, V domains shown)
VH: B12 VH with S69T, R110Q
VL: B5 VL with V2I, T28N, K108R
notes: as for B10

Target: B9
Assay: ELISA

Binder	binding result
B1	binds
B2	binds
B3	binds
B4	binds
B5	binds

Target: T1, N-10 peptide (PSMGFR minus 10 amino acids from the N-terminus)
T1 construct: also called N-10 PSMGFR; PSMGFR N-10
T1 peptide: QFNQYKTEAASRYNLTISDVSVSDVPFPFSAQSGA
Assay: ELISA

Binder	binding result
B6	no binding
B7	no binding
B4	binds
B5	binds
B8	no binding

Target: T2, C-10 peptide (PSMGFR minus 10 amino acids from the C-terminus)
T2 construct: also called C-10 PSMGFR; PSMGFR C-10
T2 peptide: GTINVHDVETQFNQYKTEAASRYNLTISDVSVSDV
Assay: ELISA

Binder	binding result
B1	binds
B2	binds
B6	binds
B7	binds
B4	no binding
B8	binds

Target: T3, N+20/C-27 peptide (20 amino acids added onto the N-terminus and 27 deleted from the C-terminus of PSMGFR)
T3 peptide: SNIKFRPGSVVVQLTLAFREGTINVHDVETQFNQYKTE
Assay: ELISA

Binder	binding result
B6	binds
B7	binds
B8	binds

The binders below were run against T4, NME7-AB (recombinant) (Homo sapiens (Human), UniProt Q9Y5B8 92-376) (assay: ELISA (FIG. 2A)).
T4 construct: the entry ends in a His tag; also called NM23-H7
T4 sequence: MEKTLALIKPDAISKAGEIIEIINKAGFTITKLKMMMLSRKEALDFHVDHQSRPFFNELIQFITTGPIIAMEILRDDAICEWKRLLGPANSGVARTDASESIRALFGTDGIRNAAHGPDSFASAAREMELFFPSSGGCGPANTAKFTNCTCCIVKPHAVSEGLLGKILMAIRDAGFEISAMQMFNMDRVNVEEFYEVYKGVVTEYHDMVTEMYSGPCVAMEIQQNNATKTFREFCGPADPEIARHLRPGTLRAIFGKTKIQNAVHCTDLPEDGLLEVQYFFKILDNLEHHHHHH
Experimental: FIGS. 2A-2I show results of ELISA assays. MUC1* peptides PSMGFR, PSMGFR minus 10 amino acids from the N-terminus aka N−10, or PSMGFR minus 10 amino acids from the C-terminus, aka C−10 are immobilized on the plate and the following are assayed for binding: NME7-AB (FIG. 2A), MN-C2 monoclonal antibody (FIG. 2B), MN-E6 monoclonal antibody (FIG. 2C), or dimeric NME1 (FIG. 2D). […] MUC1* peptides PSMGFR minus 10 amino acids from the N-terminus aka N−10, or PSMGFR minus 10 amino acids from the C-terminus, aka C−10, are immobilized on the plate and the following are assayed for binding: MN-C3 (FIG. 2E) and MN-C8 (FIG. 2F).

Binder	binding result
B9	binds

Target: T1, N-10 peptide (PSMGFR minus 10 amino …)
Assay: ELISA (FIG. 64)

Binder	binding result
B1	binds
B2	binds
B3	binds

Target: B9
Assay: ELISA (FIG. 65)

Binder	binding result
B6	binds
B7	binds
B8	binds

Target: T5, N+9/C-9 peptide (9 amino acids added onto the N-terminus and 9 deleted from the C-terminus of PSMGFR)
T5 peptide: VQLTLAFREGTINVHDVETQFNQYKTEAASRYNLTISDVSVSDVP
Assay: ELISA (FIG. 64A)

Binder	binding result
B1	binds
B2	binds
B3	binds

Target: B9
Assay: ELISA (FIG. 201A)

Binder	binding result
B10	binds
B11	binds
B12	binds

Target: T1, N-10 peptide (PSMGFR minus 10 amino …)
Assay: ELISA (FIG. 201B)
Experimental: (§1) FIG. 201A-201C show graphs of ELISA assays to determine the binding of another set of antibodies generated by immunizing animals with the PSMGFR peptide. […] F3, B12, B2, B7, B9, 8C7F3 and H11 all bound to the PSMGFR peptide and to the N−10 peptide.
(§2) This same ELISA assay was performed on the antibodies of the invention (FIG. 64-66 and FIG. 201). Note that only 20A10 exactly matches the binding profile of MNC2 and MNE6. 25E6, 28F9 and 18G12 are all able to bind to the N−10 peptide. 18B4 is the only antibody raised against the PSMGFR peptide that requires the 10 most N-terminal amino acids of the peptide. The color of the bars for each antibody in the ELISA graph are color coded to match the deductive cognate sequence, or a portion thereof, of that antibody. In addition, another set of antibodies was assayed by ELISA (FIG. 201). Of this set, B12, B2, B7, B9, 8C7F3, and H11 bound to the PSMGFR peptide, bound to the N−10 peptide, but not to the C−10 peptide (FIG. 201). Although these antibodies were raised against the N+20/C−27 peptide, all but one, 45C11, still bind to the PSMGFR peptide, albeit at the N-terminal portion of PSMGFR.

Binder	binding result
B10	binds
B11	binds
B12	binds

Target: T2, C-10 peptide (PSMGFR minus 10 amino …)
Assay: ELISA (FIG. 201C)
Experimental: as §1, §2

Binder	binding result
B10	no binding
B11	no binding
B13	no binding
B12	no binding
B14	no binding
B15	no binding
